Reference: article PMC3808318, “A type III ACC synthase, ACS7, is involved in root gravitropism in Arabidopsis thaliana” (Journal of Experimental Botany, 2013)
Positions count from the first letter of the chain named. One block for each molecule: values may come before it.

Experiments:
[1] = target: T1, AtCDPK16 (G-AtCDPK16-6His) (Arabidopsis thaliana, UniProt Q7XJR9); experiment: in vitro kinase assay, […] autoradiography; format: biochemical; conditions: 50 μM ATP spiked with [γ-32P]ATP, labelled compound; 6His-SUMO-AtACS7 as phosphoacceptor; Ca2+ dependent (shown with peptides P5-2 and P11-2); room temperature, 15 min
T1 construct: gene CPK16; recombinant from E. coli, N-terminal G (GST) and C-terminal 6His tags, about 100 kDa with tags
T1 sequence (Q7XJR9 1-571): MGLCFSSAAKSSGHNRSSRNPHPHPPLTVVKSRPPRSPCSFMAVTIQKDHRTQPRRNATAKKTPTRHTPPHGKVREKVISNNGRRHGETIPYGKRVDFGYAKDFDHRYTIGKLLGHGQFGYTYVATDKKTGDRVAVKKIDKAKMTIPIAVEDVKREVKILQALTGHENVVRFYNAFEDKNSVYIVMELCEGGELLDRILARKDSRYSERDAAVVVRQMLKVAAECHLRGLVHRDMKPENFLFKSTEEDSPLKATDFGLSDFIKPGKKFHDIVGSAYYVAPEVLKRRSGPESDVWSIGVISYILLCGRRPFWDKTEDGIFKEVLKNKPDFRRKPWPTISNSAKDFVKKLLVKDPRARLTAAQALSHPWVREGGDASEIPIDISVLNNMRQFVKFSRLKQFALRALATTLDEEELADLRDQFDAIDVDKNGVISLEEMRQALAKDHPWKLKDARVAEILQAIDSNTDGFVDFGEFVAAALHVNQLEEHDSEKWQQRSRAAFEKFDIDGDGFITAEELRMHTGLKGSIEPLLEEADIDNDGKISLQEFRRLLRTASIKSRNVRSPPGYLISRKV

[2] = target: T2, AtCDPK16 (G-AtCDPK16-6His) (Arabidopsis thaliana, UniProt Q7XJR9, S274A/S541A); experiment: in vitro kinase assay, […] autoradiography; format: biochemical; conditions: 50 μM ATP spiked with [γ-32P]ATP, labelled compound; AtACS7 fusion protein and peptides as phosphoacceptors; room temperature, 15 min
T2 construct: gene CPK16; recombinant from E. coli, N-terminal G (GST) and C-terminal 6His tags, about 100 kDa with tags
T2 sequence (Q7XJR9 1-571 S274A/S541A): T1 sequence (Q7XJR9 1-571) with S274A, S541A

14-3-3ω = 14-3-3ω (UniProt Q01525); experiment: quartz crystal microbalance (QCM); conditions: reference: untreated 6His-SUMO-ACS7; sites S216,T296,S299
[3] = target: T3, 6His-SUMO–AtACS7 recombinant protein (Arabidopsis thaliana, UniProt Q9STR4 1-447); experiment: quartz crystal microbalance (QCM); AFFINIX QN μ, PBS buffer; results: G-14-3-3ω coated on the sensor and 6His-SUMO–ACS7 injected (the methods tell the reverse order); conditions: both partners purified
T3 construct: 1-aminocyclopropane-1-carboxylate synthase 7 (AtACS7), Arabidopsis thaliana; called the full-length ACS7 recombinant protein; The printed name puts 6His and SUMO before ACS7; also called 6His-SUMO–ACS7; SUMO–ACS7; source: E. coli, purified (Ni-NTA)
T3 sequence (looked up): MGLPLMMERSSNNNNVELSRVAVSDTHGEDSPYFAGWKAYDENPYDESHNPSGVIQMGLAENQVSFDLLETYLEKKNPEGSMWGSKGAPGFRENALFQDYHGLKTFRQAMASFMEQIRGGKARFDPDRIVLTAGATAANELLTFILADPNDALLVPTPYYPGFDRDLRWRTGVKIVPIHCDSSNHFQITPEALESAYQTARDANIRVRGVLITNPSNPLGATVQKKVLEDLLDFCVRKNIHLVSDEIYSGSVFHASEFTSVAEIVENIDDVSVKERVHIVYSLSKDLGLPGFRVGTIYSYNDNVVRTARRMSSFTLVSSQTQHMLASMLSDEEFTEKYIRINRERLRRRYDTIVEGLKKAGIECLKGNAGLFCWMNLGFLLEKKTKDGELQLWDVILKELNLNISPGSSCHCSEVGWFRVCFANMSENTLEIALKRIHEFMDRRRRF

[4] = target: T4, phosphorylated 6His-SUMO–ACS7 (phosphorylated by CDPK16 in vitro in advance) (Arabidopsis thaliana, UniProt Q9STR4 1-447, phosphorylated by CDPK16 in vitro; the sites that the paper identifies with fusion peptides are Ser216, Thr296 and Ser299); experiment: as above; conditions: both partners purified
T4 construct: 1-aminocyclopropane-1-carboxylate synthase 7 (AtACS7), Arabidopsis thaliana; the full-length ACS7 recombinant protein; source: E. coli, purified (Ni-NTA), then phosphorylated by CDPK16 in vitro
T4 sequence (looked up): T3 sequence (looked up)

Molecule: Nc1ncnc2c1ncn2[C@@H]1O[C@H](COP(=O)(O)OP(=O)(O)OP(=O)(O)O)[C@@H](O)[C@H]1O [ATP]
- in vitro kinase assay, 32P autoradiography [1]: CDPK16 can phosphorylate the recombinant protein 6His-SUMO–AtACS7 in vitro
- in vitro kinase assay, 32P autoradiography [2]: autophosphorylation of the mutated recombinant protein (G-CDPK16-6His MT) was greatly reduced

- KD (14-3-3ω): same; reference 9.29±1.99×10–9
Molecule: AtACS7 (ACS7, type III ACC synthase) (from UniProt Q9STR4) 6His-SUMO-ACS7 phosphorylated by CDPK16 in vitro

- Kd [3]: 9.29 nM
- Kd [4]: 5.05 nM
B1: G-14-3-3ω recombinant protein (GST-tagged 14-3-3ω) (natural protein, Arabidopsis, UniProt Q01525 1-259, looked up)
chain: MASGREEFVYMAKLAEQAERYEEMVEFMEKVSAAVDGDELTVEERNLLSVAYKNVIGARRASWRIISSIEQKEESRGNDDHVTAIREYRSKIETELSGICDGILKLLDSRLIPAAASGDSKVFYLKMKGDYHRYLAEFKTGQERKDAAEHTLAAYKSAQDIANAELAPTHPIRLGLALNFSVFYYEILNSPDRACNLAKQAFDEAIAELDTLGEESYKDSTLIMQLLRDNLTLWTSDMQDDAADEIKEAAAPKPTEEQQ
notes: 14-3-3ω (14-3-3 omega), Arabidopsis; The printed name puts G (GST) before 14-3-3ω; also called 14-3-3ω protein; source: E. coli, purified (GST beads, glutathione elution)
